Source: PMC6600642

How the values were obtained:
[1] = target: microtubules (polymerized from unlabeled tubulin, Taxol-stabilised)
[2] = target: microtubules (polymerized from unlabeled tubulin, Taxol-stabilised); remark: listed apart in the source

Chain of microtubules (polymerized from unlabeled tubulin, Taxol-stabilised) (chain, as listed by the source, chain 1 of 2): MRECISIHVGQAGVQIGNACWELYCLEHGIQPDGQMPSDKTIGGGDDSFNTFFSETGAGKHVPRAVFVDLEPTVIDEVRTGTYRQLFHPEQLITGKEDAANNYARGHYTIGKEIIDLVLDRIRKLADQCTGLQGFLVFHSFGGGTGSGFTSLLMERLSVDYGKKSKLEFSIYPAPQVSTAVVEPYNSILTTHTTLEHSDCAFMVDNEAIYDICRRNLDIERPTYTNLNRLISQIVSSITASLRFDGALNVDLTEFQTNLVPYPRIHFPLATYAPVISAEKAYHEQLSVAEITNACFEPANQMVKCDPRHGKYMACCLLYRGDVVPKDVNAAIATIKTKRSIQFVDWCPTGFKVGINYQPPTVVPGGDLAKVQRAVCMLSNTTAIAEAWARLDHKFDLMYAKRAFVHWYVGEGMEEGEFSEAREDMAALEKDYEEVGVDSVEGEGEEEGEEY
Chain of microtubules (polymerized from unlabeled tubulin, Taxol-stabilised) (chain, as listed by the source, chain 2 of 2): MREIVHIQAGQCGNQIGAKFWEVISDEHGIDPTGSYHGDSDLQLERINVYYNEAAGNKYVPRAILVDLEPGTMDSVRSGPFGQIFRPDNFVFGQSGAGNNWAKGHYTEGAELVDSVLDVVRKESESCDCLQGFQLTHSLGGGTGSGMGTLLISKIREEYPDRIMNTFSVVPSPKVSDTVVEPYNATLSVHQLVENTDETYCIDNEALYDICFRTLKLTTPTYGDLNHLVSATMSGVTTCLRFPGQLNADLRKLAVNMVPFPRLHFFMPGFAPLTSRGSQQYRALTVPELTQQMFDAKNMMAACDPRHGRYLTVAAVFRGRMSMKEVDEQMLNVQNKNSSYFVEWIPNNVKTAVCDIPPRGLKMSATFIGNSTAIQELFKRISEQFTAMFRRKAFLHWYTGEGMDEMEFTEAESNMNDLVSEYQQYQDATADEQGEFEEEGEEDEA

Question: “Saccharomyces cerevisiae cytoplasmic dynein (Dyn1) 1219-4093, monomeric construct, wild-type, P36022 1219-4092” was tested. Which microtubule-stimulated ATPase activity of monomeric dynein, 0–5 μM microtubules: K M for tubulin dimer [1] did it give?
Answer: 0.5 µM

Question: And the microtubule-stimulated ATPase activity of monomeric dynein (second series, beside mutant 14): [MT] K M [2]?
Answer: 0.42 µM
